Experimental data published in PMC11816700, “Multiple Chaperone DnaK–FliC Flagellin Interactions are Required for Pseudomonas aeruginosa Flagellum Assembly and Indicate a New Function for DnaK” (Microbial Biotechnology, 2025).

Experiments:
[1] = target: T1, DnaK peptide H14 (P. aeruginosa); test: peptide or protein array; SPOT membrane of 209 synthetic 15-mer peptides (shift of 3) spanning DnaK on cellulose; probed with purified recombinant FliC (GST cleaved); bound FliC detected with anti-FliC antibody and alkaline phosphatase secondary antibody; intensity by ImageJ, background subtracted; details: both partners purified
T1 construct: 15-residue stretch of P. aeruginosa DnaK, spot H14 of the DnaK SPOT membrane, domain SBD; source: synthetic peptide, SPOT membrane (cellulose)
T1 peptide: QGDALVHATRKMITE

[2] = target: T2, DnaK peptide E18 (P. aeruginosa); test: as above; details: both partners purified
T2 construct: 15-residue stretch of P. aeruginosa DnaK, spot E18 of the DnaK SPOT membrane, domain NBD (ATPase); source: synthetic peptide, SPOT membrane (cellulose)
T2 peptide: IHEVILVGGQTRMPL

[3] = target: T3, DnaK peptide H13 (P. aeruginosa); test: as above; details: both partners purified
T3 construct: 15-residue stretch of P. aeruginosa DnaK, spot H13 of the DnaK SPOT membrane, domain SBD; source: synthetic peptide, SPOT membrane (cellulose)
T3 peptide: ARNQGDALVHATRKM

[4] = target: T4, DnaK peptide E20 (P. aeruginosa); test: as above; details: both partners purified
T4 construct: 15-residue stretch of P. aeruginosa DnaK, spot E20 of the DnaK SPOT membrane, domain NBD (ATPase); also called E20 (DnaK membrane); source: synthetic peptide, SPOT membrane (cellulose)
T4 peptide: VGGQTRMPLVQKTVA

[5] = target: SOD1bar mutant G41D (SOD1bar-G41D), FRET folding sensor; test: cell-based or functional assay
[6] = target: T5, FliC peptide B18 (P. aeruginosa); test: peptide or protein array; SPOT membrane of 159 synthetic 15-mer peptides (shift of 3) spanning FliC on cellulose; probed with purified recombinant DnaK (GST cleaved); bound DnaK detected with anti-DnaK antibody and alkaline phosphatase secondary antibody; intensity by ImageJ, background subtracted; details: both partners purified
T5 construct: 15-residue stretch of P. aeruginosa FliC, spot B18 of the FliC SPOT membrane, domain D1; source: synthetic peptide, SPOT membrane (cellulose)
T5 peptide: TRISDTTTFGGRKLL

[7] = target: T6, FliC peptide A16 (P. aeruginosa); test: as above; details: both partners purified
T6 construct: 15-residue stretch of P. aeruginosa FliC, spot A16 of the FliC SPOT membrane, domain D1; source: synthetic peptide, SPOT membrane (cellulose)
T6 peptide: AGLQISNRLSNQISG

[8] = target: T7, FliC peptide E22 (P. aeruginosa); test: as above; details: both partners purified
T7 construct: 15-residue stretch of P. aeruginosa FliC, spot E22 of the FliC SPOT membrane, domain D2; source: synthetic peptide, SPOT membrane (cellulose)
T7 peptide: TGYVQLNSPTAYSVS

[9] = target: T8, FliC peptide C20 (P. aeruginosa); test: as above; details: both partners purified
T8 construct: 15-residue stretch of P. aeruginosa FliC, spot C20 of the FliC SPOT membrane, domain D3; source: synthetic peptide, SPOT membrane (cellulose)
T8 peptide: VGGGQVKNIAIAAGD

[10] = target: T9, FliC peptide E21 (P. aeruginosa); test: as above; details: both partners purified
T9 construct: 15-residue stretch of P. aeruginosa FliC, spot E21 of the FliC SPOT membrane, domain D2; source: synthetic peptide, SPOT membrane (cellulose)
T9 peptide: TVVTGYVQLNSPTAY

[11] = target: T10, FliC peptide D20 (P. aeruginosa); test: as above; details: both partners purified
T10 construct: 15-residue stretch of P. aeruginosa FliC, spot D20 of the FliC SPOT membrane, domain D2; source: synthetic peptide, SPOT membrane (cellulose)
T10 peptide: LADQLNSNSSKLGIT

[12] = target: T11, FliC peptide A9 (P. aeruginosa); test: as above; details: both partners purified
T11 construct: 15-residue stretch of P. aeruginosa FliC, spot A9 of the FliC SPOT membrane, domain D0; source: synthetic peptide, SPOT membrane (cellulose)
T11 peptide: LNTSLQRLTTGYRIN

[13] = target: T12, FliC peptide A10 (P. aeruginosa); test: as above; details: both partners purified
T12 construct: 15-residue stretch of P. aeruginosa FliC, spot A10 of the FliC SPOT membrane, domain D0; source: synthetic peptide, SPOT membrane (cellulose)
T12 peptide: SLQRLTTGYRINSAK

[14] = target: T13, FliC peptide E20 (P. aeruginosa); test: as above; details: both partners purified
T13 construct: 15-residue stretch of P. aeruginosa FliC, spot E20 of the FliC SPOT membrane, domain D2; also called E20 (FliC membrane); source: synthetic peptide, SPOT membrane (cellulose)
T13 peptide: ATTTVVTGYVQLNSP

[15] = target: T14, FliC peptide F19 (P. aeruginosa); test: as above; details: both partners purified
T14 construct: 15-residue stretch of P. aeruginosa FliC, spot F19 of the FliC SPOT membrane, domain D1; source: synthetic peptide, SPOT membrane (cellulose)
T14 peptide: QRADLGAVQNRFKNT

[16] = target: T15, FliC peptide F22 (P. aeruginosa); test: as above; details: both partners purified
T15 construct: 15-residue stretch of P. aeruginosa FliC, spot F22 of the FliC SPOT membrane, domain D1; source: synthetic peptide, SPOT membrane (cellulose)
T15 peptide: NRFKNTIDNLTNISE

[17] = target: T16, FliC peptide D5 (P. aeruginosa); test: as above; details: both partners purified
T16 construct: 15-residue stretch of P. aeruginosa FliC, spot D5 of the FliC SPOT membrane, domain D3; source: synthetic peptide, SPOT membrane (cellulose)
T16 peptide: IPNLSARARTVFTAD

B1: purified recombinant P. aeruginosa FliC (natural protein, UniProt A0A0H2Z7X1 1-488, looked up)
chain: MALTVNTNIASLNTQRNLNASSNDLNTSLQRLTTGYRINSAKDDAAGLQISNRLSNQISGLNVATRNANDGISLAQTAEGALQQSTNILQRIRDLALQSANGSNSDADRAALQKEVAAQQAELTRISDTTTFGGRKLLDGSFGTTSFQVGSNAYETIDISLQNASASAIGSYQVGSNGAGTVASVAGTATASGIASGTVNLVGGGQVKNIAIAAGDSAKAIAEKMDGAIPNLSARARTVFTADVSGVTGGSLNFDVTVGSNTVSLAGVTSTQDLADQLNSNSSKLGITASINDKGVLTITSATGENVKFGAQTGTATAGQVAVKVQGSDGKFEAAAKNVVAAGTAATTTVVTGYVQLNSPTAYSVSGTGTQASQVFGNASAAQKSSVASVDISTADGAQNAIAVVDNALAAIDAQRADLGAVQNRFKNTIDNLTNISENATNARSRIKDTDFAAETAALSKNQVLQQAGTAILAQANQLPQAVLSLLR
notes: FliC (flagellin type B) of P. aeruginosa UCBPP-PA14, gene amplified with primers fliCFw/Rv and cloned BamHI/XhoI into pGEX-6P-1; also called FliC-GST (before cleavage); source: E. coli BL21(λDE3), pGEX-6P-1-fliC, purified (Glutathione Sepharose 4B, eluted by prescission protease)
For B1, the Intensity [1] was 3.34 relative intensity, the Intensity [2] was 2.23 relative intensity and the Intensity [3] was 2.23 relative intensity. It also gave an Intensity [4] of 2.22 relative intensity.

B2: purified recombinant P. aeruginosa DnaK (natural protein)
chain: not shown
notes: DnaK of P. aeruginosa UCBPP-PA14, gene amplified with primers dnaKFw/Rv and cloned BamHI/XhoI into pGEX-6P-1; also called DnaK-GST (before cleavage); source: E. coli BL21(λDE3), pGEX-6P-1-dnaK, purified (Glutathione Sepharose 4B, eluted by prescission protease)
For B2, the “decrease of the melting temperature (Tm) of SOD1bar-G41D with DnaK (20 μM), pH 7, fast relaxation imaging (FReI); not affected by ATP or AMP-PNP” value [5] was about 10 K, the “fold decrease of the maximal ΔD/A Initial of DnaK+SOD1bar-G41D at pH 6 when 2 mM ATP or AMP-PNP was added” value [5] was about 1.7 fold and the “fold increase of kobs of the ΔD/A Initial curve of DnaK+SOD1bar-G41D at pH 6 when 2 mM AMP-PNP was added” value [5] was 2 fold. For the same binder, the “fold increase of kobs of the ΔD/A Initial curve of DnaK+SOD1bar-G41D at pH 6 when 2 mM ATP was added” value [5] was 4 fold, the “melting temperature (Tm) of SOD1bar-G41D when supplemented with DnaK, FReI” value [5] was 308 K and the “reduction of the folding rate (kf) of SOD1bar-G41D at 310 K with DnaK (20 μM), pH 7, FReI” value [5] was about 3 fold. It also gave an Intensity [6] of 5.07 relative intensity, an Intensity [7] of 4.17 relative intensity and an Intensity [8] of 3.55 relative intensity. For the same binder, the Intensity [9] was 3.05 relative intensity, the Intensity [10] was 2.87 relative intensity and the Intensity [11] was 2.85 relative intensity. It also gave an Intensity [12] of 2.51 relative intensity, an Intensity [13] of 2.4 relative intensity and an Intensity [14] of 2.36 relative intensity. For the same binder, the Intensity [15] was 2.34 relative intensity, the Intensity [16] was 2.3 relative intensity and the Intensity [17] was 2.22 relative intensity.
